Measurements from patent US20040228836A1.

Target: intranuclear antigens consisting of histone DNA complexes (in fixed Raji cells)
Assay: 125I-labeled MAb incubated with fixed Raji cells; Scatchard analysis of bound radioactivity

Ka: 2.5e+09 M⁻¹
Substance: chimeric TNT-1 monoclonal antibody (chTNT-1)
